Measured values as given in article PMC8402785.

Legend:
[1] = target: recombinant HAdV-C5 fibre knob protein (human adenovirus type 5 (HAdV-C5))
[2] = target: recombinant HAdV-D49 fibre knob protein (human adenovirus type 49 (HAdV-D49)); test: gel electrophoresis with Coomassie staining, with or without denaturing agent; 5 µg and 10 µg of recombinant knob, with or without treatment with a denaturing agent, stained with Coomassie; validation of knob trimerisation

| Substance | stoichiometry N [1] | stoichiometry N [2] |
| --- | --- | --- |
| recombinant HAdV-C5 fibre knob protein (domain or fragment) | 3 | – |
| recombinant HAdV-D49 fibre knob protein (domain or fragment) | – | 3 |
